Key:
Assay in all cases: BLI
[1] = molecular target: SARS-CoV S protein (soluble, purified in vitro) (SARS-CoV, UniProt P59594 14-1195)
[2] = molecular target: SARS-CoV-2 S protein (full-length S protein, soluble, purified in vitro) (SARS-CoV-2, UniProt P0DTC2 16-1213)
[3] = molecular target: T1, MERS-CoV S protein (soluble, purified in vitro) (MERS-CoV, UniProt K9N5Q8 18-1297)
T1 chain: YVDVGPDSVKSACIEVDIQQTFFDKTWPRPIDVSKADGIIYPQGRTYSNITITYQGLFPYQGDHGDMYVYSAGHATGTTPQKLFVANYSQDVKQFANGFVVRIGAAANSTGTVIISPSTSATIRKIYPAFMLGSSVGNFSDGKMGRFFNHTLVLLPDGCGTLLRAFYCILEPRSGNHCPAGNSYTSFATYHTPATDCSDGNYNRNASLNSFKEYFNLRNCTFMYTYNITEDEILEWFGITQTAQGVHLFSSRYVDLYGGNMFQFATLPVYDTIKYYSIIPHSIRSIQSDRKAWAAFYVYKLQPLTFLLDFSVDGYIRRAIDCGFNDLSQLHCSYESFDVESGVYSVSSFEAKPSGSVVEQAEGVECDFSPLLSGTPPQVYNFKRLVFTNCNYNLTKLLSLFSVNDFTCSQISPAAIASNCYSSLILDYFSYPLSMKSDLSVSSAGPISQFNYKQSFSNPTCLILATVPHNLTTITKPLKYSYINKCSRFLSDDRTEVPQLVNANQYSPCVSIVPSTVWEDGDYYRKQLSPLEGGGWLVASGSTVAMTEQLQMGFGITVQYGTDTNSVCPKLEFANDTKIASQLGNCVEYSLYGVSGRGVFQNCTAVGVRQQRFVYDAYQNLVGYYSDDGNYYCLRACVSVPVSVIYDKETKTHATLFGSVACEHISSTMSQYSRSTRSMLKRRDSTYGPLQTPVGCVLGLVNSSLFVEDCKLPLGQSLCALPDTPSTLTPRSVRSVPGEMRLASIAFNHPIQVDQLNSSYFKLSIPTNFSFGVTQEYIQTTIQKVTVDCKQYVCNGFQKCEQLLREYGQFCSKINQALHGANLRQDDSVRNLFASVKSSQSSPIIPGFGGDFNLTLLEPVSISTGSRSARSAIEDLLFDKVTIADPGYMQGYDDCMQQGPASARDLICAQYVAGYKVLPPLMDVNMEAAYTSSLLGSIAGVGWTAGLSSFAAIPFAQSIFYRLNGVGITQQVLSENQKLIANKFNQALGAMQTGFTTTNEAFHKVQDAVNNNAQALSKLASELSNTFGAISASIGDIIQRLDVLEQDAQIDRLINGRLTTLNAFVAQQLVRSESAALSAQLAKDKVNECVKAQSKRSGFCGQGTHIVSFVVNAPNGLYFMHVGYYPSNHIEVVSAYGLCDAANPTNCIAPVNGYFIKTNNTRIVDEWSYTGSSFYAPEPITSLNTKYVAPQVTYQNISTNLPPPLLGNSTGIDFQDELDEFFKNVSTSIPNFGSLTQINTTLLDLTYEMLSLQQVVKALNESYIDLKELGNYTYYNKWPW

B1: fully human monoclonal antibody 76E1 (antibody, V domains shown)
VH: EVQLVESGGGVVQPGGSLRLSCEASGFSFKDYGMHWIRQTPGKGLEWISRISGDTRGTSYVDSVKGRFIVSRDNSRNSLFLQMNSLRSEDTALYYCAALVIVAAGDDFDLWGQGTVVTVSS
VL: QSALTQPLSVSGSPGQSVTISCTGSSSDIGSYNFVSWYRQYPGKAPKVMIYEVNKRPSGVPVRFSGSKSGNTASLTVSGLQHEDEADYYCCSYGGRNNLIFGGGTKLTVL
Kd [1]: 0.107 nM
Kd [2]: 0.431 nM
Kd [3]: 1.03 nM
